Test results published in the DeepSol protein solubility set.

Assay: soluble on expression in E. coli; label from the status in PepcDB or PDB records

Sequence	soluble on expression in E. coli
SREIDYTAYPWFAGNMERQQTDNLLKSHASGTYLIRERPAEAERFAISIKFNDEVKHIKVVEKDNWIHITEAKKFDSLLELVEYYQCHSLKESFKQLDTTLKYPY	soluble
SRILVSIGESFGTSEKFQKINQMVCNSDRVLKRSAEGSNPPKPLKK	soluble
SRMVLRGLLSEHPKKQMIPVIIYGAGRSGRQLLEAVKQMREYSAAAFVDDDPKLWHTVIYDLAVYQPDAIAFLIERYGVEKILLAIPGATQEQRRRIINKLEAYPCEVLTIPGMKDLMDGKISIGTLKKISVSDLLGRDSVAPDDRLMSADIEGKTVMVTGAGGSIGSELCRQIIRRRPEKLLLFELSEFALYAIEKELRETCIQKRLDTEILPFLGSVQNRTLLE	not soluble
SRPVGPLARRGCCSAPGTPEVPLTRERYPVQRLPFSTVSKQDLAAFERIVPGGVVTDPEALQAPNVDWLRTLRGCSKVLLRPRTSEEVSHILRHCHERNLAVNPQGGNTGMVGGSVPVFDEIILSTARMNRVLSFHSVSGILVCQAGCVLEELSRYVEERDFIMPLDLGAKGSCHIGGNVATNAGGLRFLRYGSLHGTVLGLEVVLADGTVLDCLTSLRKDNTGYDLKQLFIGSEGTLGIITTVSILCPPKPRAVNVAFLGCPGFAEVLQTFSTCKGMLGEILSAFEFMDAVCMQLVGRHLHLASPVQESPFYVLIETSGSNAGHDAEKLGHFLEHALGSGLVTDGTMATDQRKVKMLWALRERITEALSRDGYVYKYDLSLPVERLYDIVTDLRARLGPHAKHVVGYGHLGDGNLHLNVTAEAFSPSLLAALEPHVYEWTAGQQGSVSAEHGVGFRKRDVLGYSKPPGALQLMQQLKALLDPKGILNPYKTLPSQA	soluble
SRVQILKDFVKQHFPATPLLDYALEVEKITTSKKPNLILNVDGFIGVAFVDMLRNCGSFTREEADEYVDIGALNGIFVLGRSMGFIGHYLDQKRLKQGLYRHPWDDISYVLPEHMSM	soluble
SRYAIYWTPEDGPLARFGRSWLGWDPVTAEPAAHPAIEDLPRDVALITQAPRKYGLHATLKPPFRLADGADVTDLHAAVVALCPYLAPVTLPGLKLDRIGGFLALVPAGNEEPLADLAAEVMRALDGFRAPLTEAELARRRPERLTPRQRGHLADWGYPYVLDDYRFHVTLTGELPEAELAEVVTVLEPLLEPILAEPVRIASLCLFAEASDGRFRMLERLPIT	not soluble
SSGLVPRGSHMSEMIYGIHAVQALLERAPERFQEVFILKGREDKRLLPLIHALESQGVVIQLANRQYLDEKSDGAVHQGIIARVKPGRQYQENDLPDLIASLDQPFLLILDGVTDPHNLGACLRSADAAGVHAVIVPKDRSAQLNATAKKVACGAAESVPLIRVTNLARTMRMLQEENIWIVGTAGEADHTLYQSKMTGRLALVMGAEGEGMRRLTREHCDELISIPMAGSVSSLNVSVATGICLFEAVRQRS	soluble
SSGRSVRAETRSRAKDDIKKVMAATERVRRWEKKWVTVGDTSLRIFKWVPVTETKQIYKPKGAGPAVRELKGFPTDVVLENARSVLLDFQDDNSNQSFLSDAYQSNTKVDSSSNSSPQHVSEAVSPSHPPYYRTEDSQPPTLGQESMEAEREASTTSSEVTDEPPTLIKEDVLSLSTQEEEEAIGAPPLKRVCTEHNSTVS	soluble
SSKSLKKLVEESREKNQPEVDMSDRGISNMLDVNGLFTLSHITQLVLSHNKLTMVPPNIAELKNLEVLNFFNNQIEELPTQISSLQKLKHLNLGMNRLNTLPRGFGSLPALEVLDLTYNNLSENSLPGNFFYLTTLRALYLSDNDFEILPPDIGKLTKLQILSLRDNDLISLPKEIGELTQLKELHIQGNRLTVLPPELGNLDLTGQKQVFKAENNPWVTPIADQFQLGVSHVFEYIRSETYKYLYGRHMQANPEPPKKNNDKSKKISRKPLAAKNR	soluble
SSNAKFDQFSSDFQTFNAKFDQFSNDMNAFRSDFQAFKDDFARFNQRFDNFATKYR	soluble
SSPATPVPPDSILESPFEEMALVRGGWLWRQSSILRRWKRNWFALWLDGTLGYYHDETAQDEEDRVVIHFNVRDIKVGQECQDVQPPEGRSRDGLLTVNLREGSRLHLCAETRDDAIAWKTALMEANSTPAPAGATVPPRSRRVCPKVRCTTLSWNPCKVERRIWVRVYSPYQDYYEVVPPNAHEATYVRSYYGPPYAGPGVTHVIVREDPCYSSGAPLAMGMLAGAATGAALGSLMWSPCWF	not soluble
SSQFWYSEETASRLAEELLQQAGEHGRIACLSAPSVYQKLKQLESVRSDGVSAVLLEFDRRFAAYGDEFVFYDYNNPLCLPEDLLPQSFDIVIADPPYLSEECLSKVTLTVKHLTKGKILLCTGAIMEEHAGKLLDLKMCSFLPRHNHNLANEFRCYVNYESRLLS	soluble
SSSEGFICPQCMKSLGSADELFKHYEAVHDAGND	soluble
SSSESEKDKERLIQAAKLFFFHIRDLVSFINRFVELFNLTMKTQILPMNLNEESCIKDFFEQMIRNFKEMQLMVDGKHKQMQKEPLCSKVLTAMTSAVEKCATIAPHHTAEDMLRNIQTSGAALVLKTSHVLVNLETSLSLLMQFPIMGLRLSDLYREETKEQSDATSDATTSEKNKSPECPKATTEETLRKLQDVLSPENAHTPVEAAADELEQFVKSMEITLQVLQKSIKTMEGDIFVLTQVQGK	soluble
STITTEEVLVTVFQFLEKATEYPYNDPHKTLALVVHGILLTHGFRPSEEEPPENVDNWSLSVENAKIPNCFEENKYGGSYRHYKSCMTFEVRMVPLDKYVVVNAVASDVDRVFYCELKLEKYFKDTVLEGGKLVVPLRNLKWSQILKNVTDMIAVLRTQIIYALVPDSAKEGYEAKTSETHVGQSTNQQSQDSRQFSLPSRDPLRVVPPVGSRYYPSAYIDEDRDSIPVLGQGDLYPGGLPRLERTFPSGPLDGSFAAPDNGSLMGPRHSMFQRRDQRPGPGNNMLPRGAVPPGARFDEFGPRFPPDETYSTLAGWRHRQEMPNNDVDEPPPPEMYM	soluble
STPELLSGHIPPGHIPKPIVMPDYVAKYPVIQTDDDRERYKAVFQDQFSEYKELSAEVQAILRKFDELDTVMSRLPHHSENRQEHERISRIHEEFRKKKNDPSFLEKKERCDYLKNKLSHIKQRIQEYDKVMNWDTQGYP	soluble
STRFLEKRHKKKKATNKERILSYKPIHAIEQENSFRSSRCSNQTVEVSAVEDSRSALVGFFESNEPSESVTLKGKRERQLLASKTLISQLKEENCRLKERLNEVKDQLELKEKIALVQQENNDLEAEVLEWKAKFYESESEKERILASRSRPKDGYEIVQESLAQQPGTTSFYDYKFRQLVHKLTRMNAIHSKHNDKEYHKCDIVNESKDRSITFELFIDEEQEEIEYVPVQLNGVSQKLPSYLQDNISFDVQNAPIFFTKIMHSLFSK	soluble
STSGPGGPAAAAGGRKENHQWYVCNREKLCESLQAVFVQSYLDQGTQIFLNNSIEKSGWLFIQLYHSFVSSVFSLFMSRTSINGLLGRGSMFVFSPDQFQRLLKINPDWKTHRLLDLGAGDGEVTKIMSPHFEEIYATELSETMIWQLQKKKYRVLGINEWQNTGFQYDVISCLNLLDRCDQPLTLLKDIRSVLEPTRGRVILALVLPFHPYVENVGGKWEKPSEILEIKGQNWEEQVNSLPEVFRKAGFVIEAFTRLPYLCEGDMYNDYYVLDDAVFVLKPV	soluble
STSLPQISTLMREKSVENKLKVKAKDDHMVPSGLYEVRAIQLPGGSWRHYYVDHSSKETYWILPYSHPDGASSHPLEKLPVYLPSYEECVDETNPLAVPEVCSPARD	soluble
STSPTATKYDVFLSFRGVDTRRNFISFLYKEFVRRKIRTFKDDKELENGRRISPELKRAIEESKFAVVVVSVNYAASPWCLDELVKIMDFENKGSITVMPIFYGVDPCHLRRQIGDVAEQFKKHEAREEDHEKVASWRRALTSLASISGDCSSKCEDEAKLVDEIADKISKNLMTVTTISNGKNLVGIDTHMKALNKKLDLNSNKSLRVVGIWARGYNGRSALAKYVYQDICHHFDSHCFLGSVKRISQGRHLSHLHEEFLIRIQGSKHNLKDQKVLLVADDVYKLEQLDALAEDFNGFGPGSVVIITTQDKHLFVSAGIKLVYEVELLKFQKVCELFRQFAFKKRDISAAVKLVYYRATNWLGCLSGRSG	soluble
SVDYVFNKVMQPHQQMRIRVALGIEDDLRGGGYNVDQSKIAIGSGGFMGKGFLKGTQTKLKYVPEQDTDFIFCTVGEEQG	not soluble
SVHKPSGQIMAVKRIRSTVDEKEQKQLLMDLDVVMRSSDCPYIVQFYGALFREGDCWICMELMSTSFDKFYKYVYSVLDDVIPEEILGKITLATVKALNHLKENLKIIHRDIKPSNILLDRSGNIKLCDFGISGQLVDSIAKTRDAGCRPYMAPERIDPSASRQGYDVRSDVWSLGITLYELATGRFPYPKWNSVFDQLTQVVKGDPPQLSNSEEREFSPSFINFVNLCLTKDESKRPKYKELLKHPFILMYEERTVEVACYVCKILDQMPATPSSPMYVD	soluble
SVLQVLHIPDERLRKVAKPVEEVNAEIQRIVDDMFETMYAEEGIGLAATQVDIHQRIIVIDVSENRDERLVLINPELLEKSGETGIEEGCLSIPEQRALVPRAEKVKIRALDRDGKPFELEADGLLAICIQHEMDHLVGKLFMDYLSPLKQQRIRQKVEKLDRLKARAPNSSSVDKLAAALEHHHHHH	soluble
SVTSSQVMLMPAHDSAKPTGFGIMVTSLDLLRDHQKVIHTLWFIDDVVARELGGFDGFCRRERVLLLFVDSTNTTLSFTRNDMTCVPRQGGADSDHWLFKRHLALLLPLSFAQVYEGFISFYEEEDKHISWDIKSCSSSSHQ	not soluble
SYYHHHHHHDYDIPTTENLYFQGAMGSFGSKDAAADGKPLVVTTIGMIADAVKNIAQGDVHLKGLMGPGVDPHLYTATAGDVEWLGNADLILYNGLHLETKMGEVFSKLRGSRLVVAVSETIPVSQRLSLEEAEFDPHVWFDVKLWSYSVKAVYESLCKLLPGKTREFTQRYQAYQQQLDKLDAYVRRKAQSLPAERRVLVTAHDAFGYFSRAYGFEVKGLQGVSTASEASAHDMQELAAFIAQRKLPAIFIESSIPHKNVEALRDAVQARGHVVQIGGELFSDAMGDAGTSEGTYVGMVTHNIDTIVAALAR	soluble
TAALVINANPFTLGHQYLVEKAAAENELLHLFMVSDDSSLIPFSVRKQLILAGTEHLSNICYHETGPYIISKSIFPSYFQKDQASVIESQARIDLAIFIQIAKYLGIKGRYVGEEPTSLVTGIYNQIMLQELPKQAIDCIVVPRKTYKDGPISASTVRKALKEGNEQILRELLPSTSLNYFLSPEAQPLIKKIQKADNVIHY	not soluble
TAWILMVPIALLYVKNWEEECCKQKKEEFREQFRESIQTLSAILKVGYSVENAIRETWKEICPIYKKKTRIIKEYETMVHQLDLNMTAEEVMKQFADRVKEEDVENFVTVFGAAKRLGGDSIAIIRHAADAIGEKMEVEREIQVMLTSKKLEFKIMCVIPFVIILYMRSAFPEFM	not soluble
